Binding result and Kd data for 15 molecules are collected here from patent US20220175942A1 (OXFORD UNIVERSITY INNOVATION, published 2022).

One may read the Kd as the constant that tells how readily two partners part at equilibrium. A high value points to a looser complex.

T1: CCL19_HUMAN (human, UniProt Q99731 22-98)
T1 construct: Biotinylated (detected with streptavidin-Alexa647) in yeast display; AlexaFluor 647 labelled (Almac) in thermophoresis
T1 sequence: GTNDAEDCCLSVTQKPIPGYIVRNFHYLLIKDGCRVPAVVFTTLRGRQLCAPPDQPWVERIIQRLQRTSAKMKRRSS

T2: CXCL10_HUMAN (human, UniProt P02778 22-98)
T2 construct: Biotinylated (detected with streptavidin-Alexa647) in yeast display; AlexaFluor 647 labelled (Almac) in thermophoresis
T2 sequence: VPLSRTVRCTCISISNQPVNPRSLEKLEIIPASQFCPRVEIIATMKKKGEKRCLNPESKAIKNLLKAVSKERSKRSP

T3: CCL5_HUMAN (human, UniProt P13501 24-91)
T3 construct: Biotinylated (detected with streptavidin-Alexa647) in yeast display; AlexaFluor 647 labelled (Almac) in thermophoresis
T3 sequence: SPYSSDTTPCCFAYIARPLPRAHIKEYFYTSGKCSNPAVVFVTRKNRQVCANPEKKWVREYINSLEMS

T4: CCL17_HUMAN (human, UniProt Q92583 24-94)
T4 construct: Biotinylated (detected with streptavidin-Alexa647) in yeast display; AlexaFluor 647 labelled (Almac) in thermophoresis
T4 sequence: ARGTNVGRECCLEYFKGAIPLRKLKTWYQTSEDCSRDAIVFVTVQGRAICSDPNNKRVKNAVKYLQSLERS

T5: CCL25_HUMAN (human, UniProt O15444 24-150)
T5 construct: Biotinylated (detected with streptavidin-Alexa647) in yeast display; AlexaFluor 647 labelled (Almac) in thermophoresis
T5 sequence: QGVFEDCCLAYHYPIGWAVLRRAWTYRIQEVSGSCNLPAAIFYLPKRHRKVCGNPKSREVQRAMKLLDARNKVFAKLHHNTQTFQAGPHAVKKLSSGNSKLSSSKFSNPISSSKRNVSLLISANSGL

T6: P546_AMBCA (Amblyomma cajennense, UniProt A0A023FBW7 22-118)
T6 construct: Tick evasin; also called Evasin
T6 sequence: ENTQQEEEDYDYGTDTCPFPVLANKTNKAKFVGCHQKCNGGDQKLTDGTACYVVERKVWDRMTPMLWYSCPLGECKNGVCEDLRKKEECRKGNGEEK

T7: P467_RHIPU (Rhipicephalus pulchellus, UniProt L7M8Z8 22-127)
T7 construct: Tick evasin; also called Evasin
T7 sequence: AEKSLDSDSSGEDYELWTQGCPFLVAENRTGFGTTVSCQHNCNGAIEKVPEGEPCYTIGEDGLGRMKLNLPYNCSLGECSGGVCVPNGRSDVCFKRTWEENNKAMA

T8: P1182_AMBMA (Amblyomma maculatum, UniProt G3MJ83 27-115)
T8 construct: Tick evasin; also called Evasin
T8 sequence: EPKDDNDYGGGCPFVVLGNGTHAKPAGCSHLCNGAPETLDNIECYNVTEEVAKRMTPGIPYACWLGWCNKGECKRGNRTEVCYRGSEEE

T9: P1243_AMBAM (Amblyomma americanum, UniProt A0A0C9S461 26-123)
T9 construct: Tick evasin; also called Evasin
T9 sequence: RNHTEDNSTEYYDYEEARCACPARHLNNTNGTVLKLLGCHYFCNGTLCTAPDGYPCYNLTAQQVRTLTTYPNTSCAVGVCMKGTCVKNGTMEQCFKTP

T10: CCL3_HUMAN (human, UniProt P10147 24-92)
T10 construct: Biotinylated (detected with streptavidin-Alexa647) in yeast display; AlexaFluor 647 labelled (Almac) in thermophoresis
T10 sequence: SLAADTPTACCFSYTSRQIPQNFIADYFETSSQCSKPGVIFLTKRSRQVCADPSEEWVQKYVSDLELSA

T11: CCL8_HUMAN (human, UniProt P80075 24-99)
T11 construct: Biotinylated (detected with streptavidin-Alexa647) in yeast display; AlexaFluor 647 labelled (Almac) in thermophoresis
T11 sequence: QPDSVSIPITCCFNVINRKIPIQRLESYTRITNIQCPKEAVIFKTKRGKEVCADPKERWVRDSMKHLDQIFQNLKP

T12: CXCL8_HUMAN (human, UniProt P10145 28-99)
T12 construct: Biotinylated (detected with streptavidin-Alexa647) in yeast display; AlexaFluor 647 labelled (Almac) in thermophoresis
T12 sequence: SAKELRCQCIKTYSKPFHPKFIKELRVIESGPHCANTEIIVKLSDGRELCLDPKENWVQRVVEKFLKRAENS

B1: P1219_IXORI (other)
chain: ASLAKETEDTTLPARALVDSPDSDNCSSPQLPYFDELTYMPLGFLAVNCTKTCPVGKNGTVVNGNKCIVTWSILDVSTITVLVGSCKNGYCISDGSSECRNITLAGEDSQEEEEEAEEDEEEDDGDEEEDEEEDEEENDDD
notes: Tick evasin; also called Evasin
B2: P1011_AMBTR (other)
chain: EKDTPKNIPGCEDAGTTAAPPADNPKHYAVYTDKNGCTFKVIGTWMTKEDHRRLPVSLRRVRASSGRVKLPASCQKICKHSVKKFPEGTPCRLVTRDPIKGKNHIKNGCIRGYCSSGVCVSDNRSISCYVLPNNTELTSPSGSFAE
notes: as for B1
B3: CCL1_HUMAN (ligand)
chain: KSMQVPFSRCCFSFAEQEIPLRAILCYRNTSSICSNEGLIFKLKRGKEACALDTVGWVQRHRKMLRHCPSKRK
notes: Biotinylated (detected with streptavidin-Alexa647) in yeast display; AlexaFluor 647 labelled (Almac) in thermophoresis
B4: CXCL11_HUMAN (ligand)
chain: FPMFKRGRCLCIGPGVKAVKVADIEKASIMYPSNNCDKIEVIITLKENKGQRCLNPKSKQARLIIKKVERKNF
notes: as for B3
B5: CCL22_HUMAN (ligand)
chain: GPYGANMEDSVCCRDYVRYRLPLRVVKHFYWTSDSCPRPGVVLLTFRDKEICADPRVPWVKMILNKLSQ
notes: as for B3
B6: CCL11_HUMAN (ligand)
chain: not shown
notes: as for B3
B7: CCL18_HUMAN (ligand)
chain: AQVGTNKELCCLVYTSWQIPQKFIVDYSETSPQCPKPGVILLTKRGRQICADPNKKWVQKYISDLKLNA
notes: as for B3
B8: P1030_AMBPA (other)
chain: GPPSIPGNESIPGCGDAGTTTAPEDNPKHYGTLTDKKGCTLPIIGTWMTAVDHQHLQGTRGERRGPTGKVNLPASCRKNCHGRQEILRDGIPCRKVVGNPKGSKKHLKSGCLRGKCLAGQCVNDGRRISCYVPRNITDTEPTPGLLAE
notes: Tick evasin
B9: P1283_IXORI (other)
chain: KEPEDTTLPPGALVDSPDSDNCSSPHLPYFDETTNMWMGFLAVNCTKKCPVGKHVTVVDGNKCIGTWSFLDELTITVLVGSCKDGFCETDGSSECRNITLAEEDSQEEEGAAAEEEDEEDEEDEEEEEAEEEREDDHDDA
notes: as for B1
B10: P1005_AMBMA (other)
chain: EKDTPKNIPGCGDTGTTAAPPADNPKHFAVYTDKHGCTIKVIGTWMTKEDHSRLPVSLRRVRASSGRVMLPASCQKICNDTVKNFPEGTPCRLVTGDPIKGKNHIKDGCIRGYCSSGVCVSDKRNISCYVPPN
notes: as for B1
B11: P1146_IXORI (other)
chain: GPDTKGDEESDENELFTVEYCGTNCTQLENGSWTPCSGNNGNCRCFHESDKTVGLCLSTEYTDFSEYPDPNSSEIIAAAPLPRERLIQ
notes: as for B1
B12: P943_IXORI (other)
chain: RSKQPTASQSSKNSIKAEFCDTNCTQGTNGAWSGCSEGCFCVHVGNNTKGRCMKLSSDYDYTTQ
notes: as for B1
B13: P1220_IXORI (other)
chain: GSTPSAMKTEDILKVLGSTSSLENHTDSSHCRYQELLDITKNIENAGFLAINCQRSCPNGKQTMVEGYGCIFKIKHATKRGKVKVKEGSCRKGACVRGSTRPPWRLLVLLGESKEEEFL
notes: as for B1
B14: P698_RHISA (other)
chain: NEDDSSDYYDASPMNCSSMSVNSTMGWLSMNCTMSCNGTTFPLSNSTHCFHSYTNLTVQSRMETMTYNCSVGTCSNGTCVENGTTTTCW
notes: as for B1
B15: P1063_AMBTR (other)
chain: QSEVGKNVPGCGDTETLEAPPQEKPPYYEYKDEEGCTQKVLESWFQAGERSTGRGQKKRGHGRRPSRVLRTVDCRKNCTVGITALPDGHLCLVPRGDPFTRGGAIKYGCYLGDCASGHCQHRYETVSCRLPAPDTTAKPYYVTPEK
notes: as for B1

Assay [1] addresses T1, CCL19_HUMAN. Description: yeast surface display library FACS screen, labelled chemokine (col C: isolated in).
The target in another assay is T2, CXCL10_HUMAN. The description is as above.
Assay [2] has as its target T3, CCL5_HUMAN. Kind of assay: yeast surface display FACS re-test, >3 fold MFI over control (col D).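 Note: yeast displaying putative tick Evasins stained with biotinylated human chemokine plus streptavidin-Alexa647, flow cytometry, positive when MFI exceeds 3-fold the empty-vector or no-chemokine background.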
The target of assay [3] is T4, CCL17_HUMAN. The description is as above.
The target in the assay “CCL18_HUMAN” is B7. The description is as above.
Assay [4] addresses T5, CCL25_HUMAN. The assay is described as above.
For the assay “CCL11_HUMAN”, the target named is B6. Description: yeast surface display library FACS screen, labelled chemokine (col C: isolated in).
The target in a further assay is T6, P546_AMBCA. Description: microscale thermophoresis, AlexaFluor 647 labelled chemokine. (Microscale thermophoresis detects binding through changes in fluorescence in a small temperature gradient.)
Another assay concerns the target T7, P467_RHIPU. Description: yeast surface display library FACS screen, labelled chemokine (col C: isolated in).
In the next assay the target is T8, P1182_AMBMA. Described as above.
Another assay addresses T9, P1243_AMBAM. The assay is described as above.
In a further assay the target is T10, CCL3_HUMAN. Kind of assay: yeast surface display FACS re-test, >3 fold MFI over control (col D).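 Note: yeast displaying putative tick Evasins stained with biotinylated human chemokine plus streptavidin-Alexa647, flow cytometry, positive when MFI exceeds 3-fold the empty-vector or no-chemokine background.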
The next assay concerns the target T11, CCL8_HUMAN. The assay is described as above.
A further assay concerns the target T13, CCL20_HUMAN (human, UniProt P78556 27-96).
T13 construct: Biotinylated (detected with streptavidin-Alexa647) in yeast display; AlexaFluor 647 labelled (Almac) in thermophoresis
The description is as above.

In assay [5] the target is T12, CXCL8_HUMAN. The assay is described as above.
Assay [6] has as its target T4, CCL17_HUMAN. Description: yeast surface display library FACS screen, labelled chemokine (col C: isolated in).
For assay [7], the target named is T1, CCL19_HUMAN. Description: yeast surface display FACS re-test, >3 fold MFI over control (col D).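 Note: yeast displaying putative tick Evasins stained with biotinylated human chemokine plus streptavidin-Alexa647, flow cytometry, positive when MFI exceeds 3-fold the empty-vector or no-chemokine background.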
The assay “CCL1_HUMAN” has as its target B3. Description: yeast surface display library FACS screen, labelled chemokine (col C: isolated in).
For assay [8], the target named is T5, CCL25_HUMAN. The description is as above.
Assay [9] deals with T12, CXCL8_HUMAN. Described as above.
Assay [10] concerns the target T3, CCL5_HUMAN. Described as above.

CCL11_HUMAN, sequence (P51671 24-97 limits assumed): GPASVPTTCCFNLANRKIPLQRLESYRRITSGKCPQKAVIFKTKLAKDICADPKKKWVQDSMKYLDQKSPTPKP
T13 sequence (P78556 27-96 limits assumed): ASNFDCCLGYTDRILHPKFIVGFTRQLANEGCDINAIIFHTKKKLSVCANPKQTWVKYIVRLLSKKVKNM

In the case of B1, the binding result in the assay with CCL19_HUMAN [1] and in the assay with CXCL10_HUMAN was “binds” in each case.

For the molecule B2, the binding result with CCL5_HUMAN [2], with CCL17_HUMAN [3], with CCL18_HUMAN, with CCL25_HUMAN [4] and in the assay with CCL11_HUMAN was “binds” each time.

In the assay with P546_AMBCA, B3 returned an equilibrium dissociation constant (Kd) of 149 nM. Further, the binding result with P467_RHIPU is given as “binds”.

Turning to B4, the binding result in the assay with P546_AMBCA is recorded as “no binding”.

The molecule B5 yielded a Kd with P546_AMBCA of 175 nM.

In turn, B6 displayed a Kd with P546_AMBCA of 500 nM.

B7 displayed a Kd with P546_AMBCA of 86 nM. For the same molecule, the binding result with P1182_AMBMA and with P1243_AMBAM was “binds” each time.

Consider B8, for which the binding result with CCL3_HUMAN, in the assay with CCL5_HUMAN [2], with CCL8_HUMAN, with CCL18_HUMAN, in the assay with CCL20_HUMAN and with CXCL8_HUMAN [5] was “binds” each time. Also, the binding result with CCL11_HUMAN and with CCL17_HUMAN [6] was “binds” each time.

As to B9, in the assay with CXCL10_HUMAN, the binding result was “binds”.

For B10, the binding result with CCL3_HUMAN, with CCL5_HUMAN [2], in the assay with CCL17_HUMAN [3], in the assay with CCL19_HUMAN [7], in the assay with CXCL8_HUMAN [5] and with CCL1_HUMAN was “binds” each time. Also, the binding result with CCL11_HUMAN and with CCL25_HUMAN [8] was “binds” in each case.

For the molecule B11, the binding result in the assay with CXCL8_HUMAN [9] is “binds”.

With B12, in the assay with CCL5_HUMAN [10], the binding result is listed as “binds”.

Turning to B13, the binding result with CCL25_HUMAN [8] is on record as “binds”.

B14: in the assay with CCL8_HUMAN, the binding result was “binds”.

For B15, the binding result with CCL5_HUMAN [10] is listed as “binds”.
